{"source": "patent US20260144882A1", "about": "(BIO THERA SOLUTIONS, published 2026)", "binders": {"B1": {"name": "1G8-1D7 scFv (scFv, V domains shown)", "VH": "EVQLVESGGGLVQPGGSLRLSCAASGGSFSNYAMSWVRQAPGKGLEWVSWIDTTSAYASYADSVKGRFTISRDNSKNTLYLQMNSLRAEDTAVYYCARQTEDRSYGYDLDYWGQGTLVTVSS", "VL": "DIQMTQSPSSLSASVGDRVTITCRASQGISSYLAWYQQKPGKAPKLLIYAASSLQSGVPSRFSGSGSGTDFTLTISSLQPEDFATYYCQQHYTTPPTFGQGTKVEIKR", "notes": "phage clone supernatant"}, "B2": {"name": "1G8-1E10 scFv (scFv, V domains shown)", "VH": "EVQLVESGGGLVQPGGSLRLSCAASGDSFSTYAMSWVRQAPGKGLEWVSRISGSGDGKDYADSVKGRFTISRDNSKNTLYLQMNSLRAEDTAVYYCARQTEDRSYGYDLDYWGQGTLVTVSS", "VL": "DIQMTQSPSSLSASVGDRVTITCRASQGISSYLAWYQQKPGKAPKLLIYAASSLQSGVPSRFSGSGSGTDFTLTISSLQPEDFATYYCQQHYTTPPTFGQGTKVEIKR", "notes": "phage clone supernatant"}, "B3": {"name": "1G8-1E6 scFv (scFv, V domains shown)", "VH": "EVQLVESGGGLVQPGGSLRLSCAASGYIFTDYSMSWVRQAPGKGLEWVSRIYTDGWEKDYADSVKGRFTISRDNSKNTLYLQMNSLRAEDTAVYYCARQTEDRSYGYDLDYWGQGTLVTVSS", "VL": "DIQMTQSPSSLSASVGDRVTITCRASQGISSYLAWYQQKPGKAPKLLIYAASSLQSGVPSRFSGSGSGTDFTLTISSLQPEDFATYYCQQHYTTPPTFGQGTKVEIKR", "notes": "phage clone supernatant"}, "B4": {"name": "1G8-1H6 scFv (scFv, V domains shown)", "VH": "EVQLVESGGGLVQPGGSLRLSCAASGFNFSGFAMSWVRQAPGKGLEWVSRIYPTSSESDYADSVKGRFTISRDNSKNTLYLQMNSLRAEDTAVYYCARQTEDRSYGYDLDYWGQGTLVTVSS", "VL": "DIQMTQSPSSLSASVGDRVTITCRASQGISSYLAWYQQKPGKAPKLLIYAASSLQSGVPSRFSGSGSGTDFTLTISSLQPEDFATYYCQQHYTTPPTFGQGTKVEIKR", "notes": "phage clone supernatant"}, "B5": {"name": "1G8-1H1 scFv (scFv, V domains shown)", "VH": "EVQLVESGGGLVQPGGSLRLSCAASGDTFSGYAMSWVRQAPGKGLEWVSRIYPYSSVRDYADSVKGRFTISRDNSKNTLYLQMNSLRAEDTAVYYCARQTEDRSYGYDLDYWGQGTLVTVSS", "VL": "DIQMTQSPSSLSASVGDRVTITCRASQGISSYLAWYQQKPGKAPKLLIYAASSLQSGVPSRFSGSGSGTDFTLTISSLQPEDFATYYCQQHYTTPPTFGQGTKVEIKR", "notes": "phage clone supernatant"}, "B6": {"name": "1G8-2A7 scFv (scFv, V domains shown)", "VH": "EVQLVESGGGLVQPGGSLRLSCAASGYSFSDYAMSWVRQAPGKGLEWVSRISAYGWGKSYADSVKGRFTISRDNSKNTLYLQMNSLRAEDTAVYYCARQTEDRSYGYDLDYWGQGTLVTVSS", "VL": "DIQMTQSPSSLSASVGDRVTITCRASQGISSYLAWYQQKPGKAPKLLIYAASSLQSGVPSRFSGSGSGTDFTLTISSLQPEDFATYYCQQHYTTPPTFGQGTKVEIKR", "notes": "phage clone supernatant"}, "B7": {"name": "1G8-1F7 scFv (scFv, V domains shown)", "VH": "EVQLVESGGGLVQPGGSLRLSCAASGYSFYGYAMSWVRQAPGKGLEWVSAIDAIGGNKRYADSVKGRFTISRDNSKNTLYLQMNSLRAEDTAVYYCARQTEDRSYGYDLDYWGQGTLVTVSS", "VL": "DIQMTQSPSSLSASVGDRVTITCRASQGISSYLAWYQQKPGKAPKLLIYAASSLQSGVPSRFSGSGSGTDFTLTISSLQPEDFATYYCQQHYTTPPTFGQGTKVEIKR", "notes": "phage clone supernatant"}, "B8": {"name": "1G8-1E8 scFv (scFv, V domains shown)", "VH": "EVQLVESGGGLVQPGGSLRLSCAASGFTFDGYAMSWVRQAPGKGLEWVSRISSYSWNPDYADSVKGRFTISRDNSKNTLYLQMNSLRAEDTAVYYCARQTEDRSYGYDLDYWGQGTLVTVSS", "VL": "DIQMTQSPSSLSASVGDRVTITCRASQGISSYLAWYQQKPGKAPKLLIYAASSLQSGVPSRFSGSGSGTDFTLTISSLQPEDFATYYCQQHYTTPPTFGQGTKVEIKR", "notes": "phage clone supernatant"}, "B9": {"name": "1G8-1D11 scFv (scFv, V domains shown)", "VH": "EVQLVESGGGLVQPGGSLRLSCAASGDIFTGYAMSWVRQAPGKGLEWVSRIDGTGDSKFYADSVKGRFTISRDNSKNTLYLQMNSLRAEDTAVYYCARQTEDRSYGYDLDYWGQGTLVTVSS", "VL": "DIQMTQSPSSLSASVGDRVTITCRASQGISSYLAWYQQKPGKAPKLLIYAASSLQSGVPSRFSGSGSGTDFTLTISSLQPEDFATYYCQQHYTTPPTFGQGTKVEIKR", "notes": "phage clone supernatant"}, "B10": {"name": "1G8-1G9 scFv (scFv, V domains shown)", "VH": "EVQLVESGGGLVQPGGSLRLSCAASGFNFGDFAMSWVRQAPGKGLEWVSRIYSGDDNASYADSVKGRFTISRDNSKNTLYLQMNSLRAEDTAVYYCARQTEDRSYGYDLDYWGQGTLVTVSS", "VL": "DIQMTQSPSSLSASVGDRVTITCRASQGISSYLAWYQQKPGKAPKLLIYAASSLQSGVPSRFSGSGSGTDFTLTISSLQPEDFATYYCQQHYTTPPTFGQGTKVEIKR", "notes": "phage clone supernatant"}, "B11": {"name": "1G8-1F11 scFv (scFv, V domains shown)", "VH": "EVQLVESGGGLVQPGGSLRLSCAASGDTFSSYAMSWVRQAPGKGLEWVSRISQTGGTTDYADSVKGRFTISRDNSKNTLYLQMNSLRAEDTAVYYCARQTEDRSYGYDLDYWGQGTLVTVSS", "VL": "DIQMTQSPSSLSASVGDRVTITCRASQGISSYLAWYQQKPGKAPKLLIYAASSLQSGVPSRFSGSGSGTDFTLTISSLQPEDFATYYCQQHYTTPPTFGQGTKVEIKR", "notes": "phage clone supernatant"}, "B12": {"name": "1G8-1E12 scFv (scFv, V domains shown)", "VH": "EVQLVESGGGLVQPGGSLRLSCAASGFNFTSYAMSWVRQAPGKGLEWVSRISAHKWDASYADSVKGRFTISRDNSKNTLYLQMNSLRAEDTAVYYCARQTEDRSYGYDLDYWGQGTLVTVSS", "VL": "DIQMTQSPSSLSASVGDRVTITCRASQGISSYLAWYQQKPGKAPKLLIYAASSLQSGVPSRFSGSGSGTDFTLTISSLQPEDFATYYCQQHYTTPPTFGQGTKVEIKR", "notes": "phage clone supernatant"}, "B13": {"name": "1G8-2A1 scFv (scFv, V domains shown)", "VH": "EVQLVESGGGLVQPGGSLRLSCAASGYSFDGFAMSWVRQAPGKGLEWVSRISGHDWSSSYADSVKGRFTISRDNSKNTLYLQMNSLRAEDTAVYYCARQTEDRSYGYDLDYWGQGTLVTVSS", "VL": "DIQMTQSPSSLSASVGDRVTITCRASQGISSYLAWYQQKPGKAPKLLIYAASSLQSGVPSRFSGSGSGTDFTLTISSLQPEDFATYYCQQHYTTPPTFGQGTKVEIKR", "notes": "phage clone supernatant"}, "B14": {"name": "1G8-1G12 scFv (scFv, V domains shown)", "VH": "EVQLVESGGGLVQPGGSLRLSCAASGYNFTSSAMSWVRQAPGKGLEWVSRIYSISGNTDYADSVKGRFTISRDNSKNTLYLQMNSLRAEDTAVYYCARQTEDRSYGYDLDYWGQGTLVTVSS", "VL": "DIQMTQSPSSLSASVGDRVTITCRASQGISSYLAWYQQKPGKAPKLLIYAASSLQSGVPSRFSGSGSGTDFTLTISSLQPEDFATYYCQQHYTTPPTFGQGTKVEIKR", "notes": "phage clone supernatant"}, "B15": {"name": "1G8-2B5 scFv (scFv, V domains shown)", "VH": "EVQLVESGGGLVQPGGSLRLSCAASGYNFGNYAMSWVRQAPGKGLEWVSRIKSHDSTSHYADSVKGRFTISRDNSKNTLYLQMNSLRAEDTAVYYCARQTEDRSYGYDLDYWGQGTLVTVSS", "VL": "DIQMTQSPSSLSASVGDRVTITCRASQGISSYLAWYQQKPGKAPKLLIYAASSLQSGVPSRFSGSGSGTDFTLTISSLQPEDFATYYCQQHYTTPPTFGQGTKVEIKR", "notes": "phage clone supernatant"}, "B16": {"name": "1G8-2A4 scFv (scFv, V domains shown)", "VH": "EVQLVESGGGLVQPGGSLRLSCAASGDTFSSNAMSWVRQAPGKGLEWVSRIYGGSWDTDYADSVKGRFTISRDNSKNTLYLQMNSLRAEDTAVYYCARQTEDRSYGYDLDYWGQGTLVTVSS", "VL": "DIQMTQSPSSLSASVGDRVTITCRASQGISSYLAWYQQKPGKAPKLLIYAASSLQSGVPSRFSGSGSGTDFTLTISSLQPEDFATYYCQQHYTTPPTFGQGTKVEIKR", "notes": "phage clone supernatant"}, "B17": {"name": "1G8-1G3 scFv (scFv, V domains shown)", "VH": "EVQLVESGGGLVQPGGSLRLSCAASGFNFGTYAMSWVRQAPGKGLEWVSRISGISAGTNYADSVKGRFTISRDNSKNTLYLQMNSLRAEDTAVYYCARQTEDRSYGYDLDYWGQGTLVTVSS", "VL": "DIQMTQSPSSLSASVGDRVTITCRASQGISSYLAWYQQKPGKAPKLLIYAASSLQSGVPSRFSGSGSGTDFTLTISSLQPEDFATYYCQQHYTTPPTFGQGTKVEIKR", "notes": "phage clone supernatant"}, "B18": {"name": "1G8-1G5 scFv (scFv, V domains shown)", "VH": "EVQLVESGGGLVQPGGSLRLSCAASGYNFTTSAMSWVRQAPGKGLEWVSRIYADTAYNDYADSVKGRFTISRDNSKNTLYLQMNSLRAEDTAVYYCARQTEDRSYGYDLDYWGQGTLVTVSS", "VL": "DIQMTQSPSSLSASVGDRVTITCRASQGISSYLAWYQQKPGKAPKLLIYAASSLQSGVPSRFSGSGSGTDFTLTISSLQPEDFATYYCQQHYTTPPTFGQGTKVEIKR", "notes": "phage clone supernatant"}, "B19": {"name": "1G8-2A11 scFv (scFv, V domains shown)", "VH": "EVQLVESGGGLVQPGGSLRLSCAASGDSFYNYSMSWVRQAPGKGLEWVSRISSDGWETFYADSVKGRFTISRDNSKNTLYLQMNSLRAEDTAVYYCARQTEDRSYGYDLDYWGQGTLVTVSS", "VL": "DIQMTQSPSSLSASVGDRVTITCRASQGISSYLAWYQQKPGKAPKLLIYAASSLQSGVPSRFSGSGSGTDFTLTISSLQPEDFATYYCQQHYTTPPTFGQGTKVEIKR", "notes": "phage clone supernatant"}, "B20": {"name": "1G8-2B3 scFv (scFv, V domains shown)", "VH": "EVQLVESGGGLVQPGGSLRLSCAASGYNFTTSAMSWVRQAPGKGLEWVSRIYQDSSTTDYADSVKGRFTISRDNSKNTLYLQMNSLRAEDTAVYYCARQTEDRSYGYDLDYWGQGTLVTVSS", "VL": "DIQMTQSPSSLSASVGDRVTITCRASQGISSYLAWYQQKPGKAPKLLIYAASSLQSGVPSRFSGSGSGTDFTLTISSLQPEDFATYYCQQHYTTPPTFGQGTKVEIKR", "notes": "phage clone supernatant"}}}
{"molecular_target": "T1, human Nectin-4 extracellular antigen hNectin-4-His (human, UniProt Q96NY8 32-349)", "T1 construct": "C-terminal 8xHis tag included", "T1 sequence": "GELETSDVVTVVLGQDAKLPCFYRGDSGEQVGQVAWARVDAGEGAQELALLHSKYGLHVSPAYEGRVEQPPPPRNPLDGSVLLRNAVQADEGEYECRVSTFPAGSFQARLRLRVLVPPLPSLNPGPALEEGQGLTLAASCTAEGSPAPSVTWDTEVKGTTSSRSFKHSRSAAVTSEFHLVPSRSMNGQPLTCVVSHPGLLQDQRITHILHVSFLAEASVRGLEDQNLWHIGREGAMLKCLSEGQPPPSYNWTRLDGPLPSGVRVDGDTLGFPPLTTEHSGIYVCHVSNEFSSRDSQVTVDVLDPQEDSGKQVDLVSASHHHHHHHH", "assay": "ELISA, phage scFv supernatant 1:50", "method": "The supernatants were diluted 50-fold, and the binding OD values of the diluted supernatants to hNectin-4-His were measured by ELISA. The samples were serially 3-fold diluted, and the EC₅₀ titer for the binding of the supernatants to the antigen was measured by ELISA. […] The light chain variable region sequence is set forth in SEQ ID NO: 25. The OD value is the measurement of ELISA, and the EC₅₀ value denotes the EC₅₀ value of the binding activity titer of the supernatant to the antigen.", "units": {"OD value": "OD"}}
{"binder": "B1", "OD value": 1.49}
{"binder": "B2", "OD value": 1.6}
{"binder": "B3", "OD value": 1.48}
{"binder": "B4", "OD value": 1.58}
{"binder": "B5", "OD value": 1.4}
{"binder": "B6", "OD value": 1.6}
{"binder": "B7", "OD value": 1.58}
{"binder": "B8", "OD value": 1.55}
{"binder": "B9", "OD value": 1.59}
{"binder": "B10", "OD value": 1.55}
{"binder": "B11", "OD value": 1.6}
{"binder": "B12", "OD value": 1.61}
{"binder": "B13", "OD value": 1.6}
{"binder": "B14", "OD value": 1.55}
{"binder": "B15", "OD value": 1.58}
{"binder": "B16", "OD value": 1.54}
{"binder": "B17", "OD value": 1.58}
{"binder": "B18", "OD value": 1.48}
{"binder": "B19", "OD value": 1.54}
{"binder": "B20", "OD value": 1.57}
